From patent US20240158517A1 (HIFIBIO HK, published 2024)
Like-named read-outs stand apart in the source and are kept apart here.

Experiments:
murine CXCR5 [1] = biological target: T1, murine CXCR5 (mouse, UniProt Q04683 1-374); test: flow cytometry on cells transiently transfected with murine CXCR5
T1 construct: whole, on cells; also called mouse CXCR5 ortholog
T1 sequence (looked up): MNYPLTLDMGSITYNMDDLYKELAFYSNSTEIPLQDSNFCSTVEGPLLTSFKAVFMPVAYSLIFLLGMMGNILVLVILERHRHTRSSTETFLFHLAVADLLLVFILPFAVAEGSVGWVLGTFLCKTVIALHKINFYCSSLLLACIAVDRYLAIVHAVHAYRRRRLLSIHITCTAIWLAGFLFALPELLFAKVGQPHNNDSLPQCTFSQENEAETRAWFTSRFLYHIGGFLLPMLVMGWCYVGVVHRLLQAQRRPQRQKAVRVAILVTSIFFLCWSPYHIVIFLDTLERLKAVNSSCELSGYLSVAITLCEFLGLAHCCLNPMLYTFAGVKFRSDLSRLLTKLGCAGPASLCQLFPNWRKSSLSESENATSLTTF

cynomolgus CXCR5 = biological target: T2, cynomolgus CXCR5 (cynomolgus monkey, UniProt G8F5K4 1-372); test: flow cytometry on cells transiently transfected with cynomolgus CXCR5
T2 construct: whole, on cells; also called monkey CXCR5 ortholog
T2 sequence: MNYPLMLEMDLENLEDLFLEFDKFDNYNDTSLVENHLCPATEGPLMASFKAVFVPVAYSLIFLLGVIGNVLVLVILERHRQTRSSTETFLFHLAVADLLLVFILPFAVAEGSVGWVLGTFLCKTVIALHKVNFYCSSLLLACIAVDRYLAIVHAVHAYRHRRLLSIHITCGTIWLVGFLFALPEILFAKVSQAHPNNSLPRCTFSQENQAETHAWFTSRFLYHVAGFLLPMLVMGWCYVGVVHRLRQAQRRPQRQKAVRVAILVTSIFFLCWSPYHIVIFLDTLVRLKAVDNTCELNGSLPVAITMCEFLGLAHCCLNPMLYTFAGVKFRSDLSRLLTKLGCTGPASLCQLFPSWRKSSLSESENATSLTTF

human CXCR5 [2] = biological target: T3, human CXCR5 (human, UniProt P32302 1-372)
T3 sequence (looked up): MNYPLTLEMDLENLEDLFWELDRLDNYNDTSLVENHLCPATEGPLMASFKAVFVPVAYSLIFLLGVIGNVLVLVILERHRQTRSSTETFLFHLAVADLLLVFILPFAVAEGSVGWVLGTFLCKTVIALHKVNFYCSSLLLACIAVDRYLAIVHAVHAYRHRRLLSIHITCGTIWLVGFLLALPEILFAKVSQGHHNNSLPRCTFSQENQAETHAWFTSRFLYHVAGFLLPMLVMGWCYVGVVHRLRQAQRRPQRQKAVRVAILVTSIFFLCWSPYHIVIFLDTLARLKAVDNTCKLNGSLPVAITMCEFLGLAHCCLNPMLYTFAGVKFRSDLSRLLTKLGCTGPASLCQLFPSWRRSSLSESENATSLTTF

human CXCR3 [3] = biological target: T4, human CXCR3 (human, UniProt P49682 1-368, limits assumed); test: flow cytometry (MFI) on hCXCR3
T4 construct: also called hCXCR3
T4 sequence (looked up): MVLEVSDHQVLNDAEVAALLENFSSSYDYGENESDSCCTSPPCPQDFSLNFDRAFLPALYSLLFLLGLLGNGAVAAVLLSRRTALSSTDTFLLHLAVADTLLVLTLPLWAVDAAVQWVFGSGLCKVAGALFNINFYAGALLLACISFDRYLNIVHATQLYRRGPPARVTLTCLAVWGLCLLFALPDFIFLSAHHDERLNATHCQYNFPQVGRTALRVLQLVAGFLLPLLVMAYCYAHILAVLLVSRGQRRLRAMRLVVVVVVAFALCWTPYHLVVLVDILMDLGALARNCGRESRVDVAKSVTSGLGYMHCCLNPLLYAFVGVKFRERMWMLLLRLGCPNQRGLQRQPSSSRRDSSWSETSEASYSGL

murine CXCR5 [4] = biological target: T1, murine CXCR5; test: flow cytometry, transiently transfected cells
human CXCR3 [5] = biological target: T4, human CXCR3; test: specificity assay by flow cytometry
human CXCR5 [6] = biological target: T3, human CXCR5; test: flow cytometry on an adherent stable cell line expressing hCXCR5, MFI normalized on the benchmark MFI
Description: In order to test the binding capacity to CXCR5, six chimeric monoclonal antibodies were tested in binding assay using adherent stable cell line expressing the target antigen hCXCR5.

human CXCR5 [7] = biological target: T3, human CXCR5; test: flow cytometry on CXCR5+ Raji cells, MFI

B1: HFB2-3-hG1 (antibody, V domains shown)
VH: QVQLKQSGPGLVQPSQSLSITCTVSGFSLTSYGVHWVRQSPGKGLEWLGVTWSGGRTDYNAAFISRLSINKDNSKSQVFFKMNSLQVNDTAIYYCARGGNYWGQGTSVTVSS
VL: not shown
notes: Mouse-human chimeric antibody, human IgG1 constant region
Murine CXCR5 [1]
  binding result: no binding (tested: about 150 nM)
Cynomolgus CXCR5
  binding result: no binding (tested: about 150 nM)
Human CXCR5 [2]
  EC50: 0.569 nM
Human CXCR3 [3]
  binding result: no binding (tested: about 150 nM)

B2: HFB2-5-hG1 (antibody, V domains shown)
VH: QVQLKESGPGLVAPSQSLSITCTVSGFSLTSYGVSWVRQPPGKGLEWLGVIWGDGSTNYHSTLISRLSISKDNSKSQVFLKLNSLQTDDTATYYCARVAYWGQGTLVTVSA
VL: DIVMTQAAPSIPVTPGESVSISCRSSKSLLHSNGKTYLYWFLQRPGQSPQLLIYRMSNLASGVPDRFSGSGSGTAFTLRISRVEAEDVGVYYCMQHLEYPYTFGGGTKLEIK
notes: as for B1
Murine CXCR5 [4]
  binding result: no binding
Human CXCR3 [5]
  binding result: no binding
Cynomolgus CXCR5
  binding result: no binding (tested: about 150 nM)
Human CXCR5 [6]
  EC50: 3.43 nM

B3: HFB2-4hz42hG1 (antibody, V domains shown)
VH: QVQLVQSGAEVKKPGASVKVSCKASGFSLTSYGVSWVRQAPGQGLEWMGVIWGDGSTNYAQKLQGRVTMTKDTSTSTAYMELRSLRSDDTAVYYCARVVYWGQGTLVTVSS
VL: EIVMTQSPATLSVSPGERATLSCRSSKSLLHSNGKTYLYWFQQKPGQAPRLLIYRMSNLASGIPARFSGSGSGTEFTLTISSVQSEDVAVYYCMQHLEYPYTFGQGTKLEIK
notes: Humanized, human IgG1 (hG1); also called HFB2-VH10VL6
Human CXCR5 [7]
  EC50 (read off the curve): ~0.3 nM
